Measured values taken from patent publication US20260217814 (published 2026).
Where two headings read alike, the source gives them in different places.

T1: human IL-17A (human)
T1 chain: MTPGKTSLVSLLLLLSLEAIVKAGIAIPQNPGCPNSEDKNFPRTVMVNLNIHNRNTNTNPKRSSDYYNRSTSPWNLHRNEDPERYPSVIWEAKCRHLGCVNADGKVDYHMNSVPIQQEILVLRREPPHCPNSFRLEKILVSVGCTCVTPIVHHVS

T2: cynomolgus IL-17A (cynomolgus)
T2 chain: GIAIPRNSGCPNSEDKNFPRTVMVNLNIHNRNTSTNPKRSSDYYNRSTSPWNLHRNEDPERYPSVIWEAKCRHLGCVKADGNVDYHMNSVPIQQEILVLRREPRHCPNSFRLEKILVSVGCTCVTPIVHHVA

T3: IL-17C (human)
T3 chain: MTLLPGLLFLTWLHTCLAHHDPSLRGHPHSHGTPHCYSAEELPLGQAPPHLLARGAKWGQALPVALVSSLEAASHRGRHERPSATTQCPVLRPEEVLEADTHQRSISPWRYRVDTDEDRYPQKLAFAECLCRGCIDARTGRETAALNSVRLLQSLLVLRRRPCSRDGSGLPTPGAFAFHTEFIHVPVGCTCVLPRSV

T4: IL-17F (human)
T4 chain: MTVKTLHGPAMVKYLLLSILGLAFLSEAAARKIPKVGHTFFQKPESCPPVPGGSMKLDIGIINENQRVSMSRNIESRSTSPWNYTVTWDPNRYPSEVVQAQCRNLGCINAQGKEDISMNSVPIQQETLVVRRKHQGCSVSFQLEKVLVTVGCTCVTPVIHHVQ

T5: IL-17B (human)
T5 chain: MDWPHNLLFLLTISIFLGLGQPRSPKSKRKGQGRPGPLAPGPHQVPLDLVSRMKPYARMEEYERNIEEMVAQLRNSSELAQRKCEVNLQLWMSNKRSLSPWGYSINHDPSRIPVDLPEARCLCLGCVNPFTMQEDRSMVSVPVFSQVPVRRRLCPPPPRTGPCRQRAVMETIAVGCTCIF

T6: IL-17D (human)
T6 chain: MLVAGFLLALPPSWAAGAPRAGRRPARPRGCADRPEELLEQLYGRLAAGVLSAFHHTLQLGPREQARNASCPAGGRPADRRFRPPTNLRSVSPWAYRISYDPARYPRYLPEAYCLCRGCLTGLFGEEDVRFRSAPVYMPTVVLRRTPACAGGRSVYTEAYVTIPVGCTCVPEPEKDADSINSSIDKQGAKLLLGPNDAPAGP

T7: IL-17E (human)
T7 chain: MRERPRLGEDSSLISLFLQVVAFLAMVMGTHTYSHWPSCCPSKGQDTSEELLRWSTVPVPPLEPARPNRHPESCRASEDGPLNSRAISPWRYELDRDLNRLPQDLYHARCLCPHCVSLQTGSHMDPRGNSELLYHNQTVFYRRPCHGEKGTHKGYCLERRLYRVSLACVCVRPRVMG

B1: A3 HSA arm (antibody)
chain 1: EVQLVESGGGLVQPGGSLRLSCAASGFSLSSNAMGWVRQAPGKGLEYIGIISVGGFTYYASWAKGRFTISRDNSKNTVYLQMNSLRAEDTATYFCARDRHGGDSSGAFYLWGQGTLVTVSSASTKGPSVFPLAPSSKSTSGGTAALGCLVKDYFPEPVTVSWNSGALTSGVHTFPAVLQSSGLYSLSSVVTVPSSSLGTQTYICNVNHKPSNTKVDKKVEPKSCGGGGSGGGGSDIQMTQSPSSLSASVGDRVTITCQASQTINYWLAWYQQKPGKAPKLLIYRASTLASGVPSRFSGSGSGTDFTLTISSLQPEDFATYYCQNYYYSTSRSYGFGGGTKLTVLGGGGGSGGGGSGGGGSGGGGSEVQLVESGGGLVQPGGSLRLSCAASGFSFSSDYWMCWVRQAPGKGLEWIGCIYAGDVDDTDYASWARGRFTISRDNSKNTVYLQMNSLRAEDTAVYYCARVDGFDITYFDLWGQGTLVTVSS
chain 2: DIQMTQSPSSLSASVGDRVTITCQSSESVYSNNQLSWYQQKPGQPPKLLIYDASDLASGVPSRFSGSGSGTDFTLTISSLQPEDFATYYCAGGFSSSSDTAFGGGTKLTVLGRTRTVAAPSVFIFPPSDEQLKSGTASVVCLLNNFYPREAKVQWKVDNALQSGNSQESVTEQDSKDSTYSLSSTLTLSKADYEKHKVYACEVTHQGLSSPVTKSFNRGECGGGGSGGGGSDIQMTQSPSSLSASVGDRVTINCQASESISSWLAWYQQKPGKRPKLLIYKASTLASGVPSRFSGSGSGTDYTLTISSLQPEDFATYYCQGYYLDSSVDDNVFGGGTKLTVLGGGGGSGGGGSGGGGSGGGGSEVQLVESGGGLVQPGGSLRLSCAASGIDFSTYGISWVRQAPGKGLEWIAYIYPDYGITDYASWVNGRFTISLDNAQNTVYLQMNSLRAEDTAVYYCARSGSYYSRGWGAHYFNLWGQGTLVTVSS
B2: A3 IL-17A arm (antibody)
chain 1: B1 chain 1
chain 2: B1 chain 2
B3: A4 HSA arm (antibody)
chain 1: EVQLVESGGGLVQPGGSLRLSCAASGFSFSSDYWMCWVRQAPGKGLEWIGCIYAGDVDDTDYASWARGRFTISRDNSKNTVYLQMNSLRAEDTAVYYCARVDGFDITYFDLWGQGTLVTVSSASTKGPSVFPLAPSSKSTSGGTAALGCLVKDYFPEPVTVSWNSGALTSGVHTFPAVLQSSGLYSLSSVVTVPSSSLGTQTYICNVNHKPSNTKVDKKVEPKSCGGGGSGGGGSDIQMTQSPSSLSASVGDRVTITCQSSESVYSNNQLSWYQQKPGQPPKLLIYDASDLASGVPSRFSGSGSGTDFTLTISSLQPEDFATYYCAGGFSSSSDTAFGGGTKLTVLGGGGGSGGGGSGGGGSGGGGSEVQLVESGGGLVQPGGSLRLSCAASGFSLSSNAMGWVRQAPGKGLEYIGIISVGGFTYYASWAKGRFTISRDNSKNTVYLQMNSLRAEDTATYFCARDRHGGDSSGAFYLWGQGTLVTVSS
chain 2: DIQMTQSPSSLSASVGDRVTITCQASQTINYWLAWYQQKPGKAPKLLIYRASTLASGVPSRFSGSGSGTDFTLTISSLQPEDFATYYCQNYYYSTSRSYGFGGGTKLTVLGRTRTVAAPSVFIFPPSDEQLKSGTASVVCLLNNFYPREAKVQWKVDNALQSGNSQESVTEQDSKDSTYSLSSTLTLSKADYEKHKVYACEVTHQGLSSPVTKSFNRGECGGGGSGGGGSDIQMTQSPSSLSASVGDRVTINCQASESISSWLAWYQQKPGKRPKLLIYKASTLASGVPSRFSGSGSGTDYTLTISSLQPEDFATYYCQGYYLDSSVDDNVFGGGTKLTVLGGGGGSGGGGSGGGGSGGGGSEVQLVESGGGLVQPGGSLRLSCAASGIDFSTYGISWVRQAPGKGLEWIAYIYPDYGITDYASWVNGRFTISLDNAQNTVYLQMNSLRAEDTAVYYCARSGSYYSRGWGAHYFNLWGQGTLVTVSS
B4: A5 IL-17A arm (antibody)
chain 1: EVQLVESGGGLVQPGGSLRLSCAASGIDFSTYGISWVRQAPGKGLEWIAYIYPDYGITDYASWVNGRFTISLDNAQNTVYLQMNSLRAEDTAVYYCARSGSYYSRGWGAHYFNLWGQGTLVTVSSASTKGPSVFPLAPSSKSTSGGTAALGCLVKDYFPEPVTVSWNSGALTSGVHTFPAVLQSSGLYSLSSVVTVPSSSLGTQTYICNVNHKPSNTKVDKKVEPKSCGGGGSGGGGSDIQMTQSPSSLSASVGDRVTITCQASQTINYWLAWYQQKPGKAPKLLIYRASTLASGVPSRFSGSGSGTDFTLTISSLQPEDFATYYCQNYYYSTSRSYGFGGGTKLTVLGGGGGSGGGGSGGGGSGGGGSEVQLVESGGGLVQPGGSLRLSCAASGFSFSSDYWMCWVRQAPGKGLEWIGCIYAGDVDDTDYASWARGRFTISRDNSKNTVYLQMNSLRAEDTAVYYCARVDGFDITYFDLWGQGTLVTVSS
chain 2: DIQMTQSPSSLSASVGDRVTINCQASESISSWLAWYQQKPGKRPKLLIYKASTLASGVPSRFSGSGSGTDYTLTISSLQPEDFATYYCQGYYLDSSVDDNVFGGGTKLTVLGRTRTVAAPSVFIFPPSDEQLKSGTASVVCLLNNFYPREAKVQWKVDNALQSGNSQESVTEQDSKDSTYSLSSTLTLSKADYEKHKVYACEVTHQGLSSPVTKSFNRGECGGGGSGGGGSDIQMTQSPSSLSASVGDRVTITCQSSESVYSNNQLSWYQQKPGQPPKLLIYDASDLASGVPSRFSGSGSGTDFTLTISSLQPEDFATYYCAGGFSSSSDTAFGGGTKLTVLGGGGGSGGGGSGGGGSGGGGSEVQLVESGGGLVQPGGSLRLSCAASGFSLSSNAMGWVRQAPGKGLEYIGIISVGGFTYYASWAKGRFTISRDNSKNTVYLQMNSLRAEDTATYFCARDRHGGDSSGAFYLWGQGTLVTVSS
B5: A1 (27-07-G02-sc01) (antibody)
chain: DIQMTQSPSSLSASVGDRVTITCQASQTINYWLAWYQQKPGKAPKLLIYRASTLASGVPSRFSGSGSGTDFTLTISSLQPEDFATYYCQNYYYSTSRSYGFGGGTKLTVLGGGGGSGGGGSGGGGSGGGGSEVQLVESGGGLVQPGGSLRLSCAASGFSFSSDYWMCWVRQAPGKGLEWIGCIYAGDVDDTDYASWARGRFTISRDNSKNTVYLQMNSLRAEDTAVYYCARVDGFDITYFDLWGQGTLVTVSS
B6: PRO571 (27-31-C04-sc01) (antibody)
chain: DIQMTQSPSSLSASVGDRVTITCQASESIYRYLSWYQQKPGKAPKLLIYLASTLTSGVPSRFSGSGSGTDFTLTISSLQPEDFATYYCQSNFGTASTTYYNTFGGGTKLTVLGGGGGSGGGGSGGGGSGGGGSEVQLVESGGGLVQPGGSLRLSCAASGFSFSGFYYMCWVRQAPGKGLEWIGCIDTGDGTTYYASWAKGRFTISRDNSKNTVYLQMNSLRAEDTAVYYCARDAAYGGYAYPAHGMDLWGQGTLVTVSS

Columns and labels:
human serum albumin [1] = target: T8, human serum albumin (human, UniProt P02768); test: SPR, pH 5.5
human serum albumin [2] = target: T8, human serum albumin; test: SPR, pH 7.4
human IL-17A [3] = target: T1, human IL-17A; test: SPR
cynomolgus IL-17A [4] = target: T2, cynomolgus IL-17A; test: SPR
IL-17C = target: T3, IL-17C; test: competition ELISA
IL-17F = target: T4, IL-17F; test: competition ELISA
IL-17B = target: T5, IL-17B; test: competition ELISA
human IL-17A [5] = target: T1, human IL-17A; test: SPR, direct setup
cynomolgus IL-17A [6] = target: T2, cynomolgus IL-17A; test: SPR
IL-17D = target: T6, IL-17D; test: competition
IL-17E = target: T7, IL-17E; test: competition ELISA
human IL-17A [7] = target: T1, human IL-17A; test: SPR, capture setup

Binder | Kd (human serum albumin [1]) [nM] | Kd (human serum albumin [2]) [nM] | Kd (human IL-17A [3]) [nM] | binding result (IL-17C) | binding result (IL-17F) | binding result (IL-17B) | Kd (human IL-17A [5]) [nM] | Kd (cynomolgus IL-17A [6]) [nM] | binding result (IL-17D) | binding result (IL-17E) | further results
B1 | 0.947 | 1.37 | – | – | – | – | – | – | – | – | –
B2 | – | – | 1.53 | – | – | – | – | – | – | – | –
B3 | 1.67 | 4.79 | – | – | – | – | – | – | – | – | –
B4 | – | – | 0.575 | – | – | – | – | – | – | – | Kd (cynomolgus IL-17A [4]): 0.523 nM
B5 | – | – | – | no binding | no binding | no binding | 0.14 | 0.9 | no binding | no binding | –
B6 | – | – | – | no binding | no binding | no binding | 0.04 | 0.033 | no binding | no binding | Kd (human IL-17A [7]): 0.12 nM
